Columns and labels:
[1] = target: C33S mutant human TGF-β1 (pro-TGF-β1 and latent TGF-β1), expressed in murine BW5147 T cells (human); assay: non-reducing SDS-PAGE and western blot of immunoprecipitates; anti-GARP IP products of cell lysates; SDS-PAGE under non-reducing conditions; WB with anti-LAP antibodies
[2] = target: TGF-β1 (pro-TGF-β1 and latent TGF-β1), endogenous in human T cells (human (endogenous in human T cells)); assay: non-reducing SDS-PAGE and western blot of culture supernatants; cells incubated in serum-free medium for 24 or 48 hours; supernatants analysed by WB under non-reducing conditions with anti-GARP and anti-LAP antibodies
[3] = target: C33S mutant human TGF-β1 (pro-TGF-β1 and latent TGF-β1), expressed in 293 cells (human); assay: non-reducing SDS-PAGE and western blot of immunoprecipitates; anti-GARP IP products of cell lysates; SDS-PAGE under non-reducing conditions; WB with anti-LAP antibodies
[4] = target: wild type human TGF-β1 (pro-TGF-β1 and latent TGF-β1), expressed in 293 cells (human); assay: non-reducing SDS-PAGE and western blot of culture supernatants; cells incubated in serum-free medium for 24 or 48 hours; supernatants analysed by WB under non-reducing conditions with anti-GARP and anti-LAP antibodies

Substance: C33S mutant human TGF-β1 (pro-TGF-β1 and latent TGF-β1), expressed in murine BW5147 T cells (ligand)
- stoichiometry N [1]: 2

Substance: TGF-β1 (pro-TGF-β1 and latent TGF-β1), endogenous in human T cells (ligand)
- stoichiometry N [2]: 2

Substance: C33S mutant human TGF-β1 (pro-TGF-β1 and latent TGF-β1), expressed in 293 cells (ligand)
- stoichiometry N [3]: 2

Substance: wild type human TGF-β1 (pro-TGF-β1 and latent TGF-β1), expressed in 293 cells (ligand)
- stoichiometry N [4]: 2

From article PMC3787020
